Among the data in the supplement of paper PMC10126150 are switch fluorescence ratio values, retold here.

This data set relates to ATP. Briefly: switch fluorescence ratio, 500 uM ATP over buffer (Cy3 cluster intensity, sum of 5 cycles each) (fold (ratio)); higher = stronger signal-on switching upon ATP binding; sequences stand for … in TCGTCGGCAGCGTCAGATGTGTATAAGAGACAGTTTTTTTTTTTTTTTTTTTTTTTTT…TC. The note with it: aptamer strand: ATP DNA aptamer (quencher-CACCTGGGGGAGTATTGCGGAGGAAGG + anchor), 100 nM annealed; ATP concentration: 500 uM. The method in brief:
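Values give the fluorescence ratio for each switch-domain sequence, averaged from per-cluster ratios of summed target-cycle to summed buffer-cycle Cy3 intensity. The Cy3-labelled switching-strand clusters sat on a modified Illumina MiSeq flow-cell, were annealed to 100 nM quencher-labelled ATP aptamer, and were imaged in selection buffer, then after 15 min with 500 uM ATP at 22 °C. Five cycles ran with NaOH stripping and re-annealing between them, and clusters outside 100-1000 RFU were excluded.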

± gives the standard deviation of the averaged measurements.
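Note: ATP exposure 15 min at 22 °C before imaging.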

Regarding TAGGTCCTGG, the switch fluorescence ratio was found to be 0.9888 ± 0.0074.

Regarding GGGATTCTTA, the switch fluorescence ratio came out at 0.996 ± 0.021.

In the case of GGCGGTATAT, the switch fluorescence ratio is 0.99 ± 0.027.

Take GCGTACGTAG: the switch fluorescence ratio amounted to 0.998 ± 0.019.

As for GCCTTGAGGA, the switch fluorescence ratio came to 0.997 ± 0.018.

In the case of TTTAATATCT, the switch fluorescence ratio came out at 0.998 ± 0.015.

With CGATTCTTGG, the switch fluorescence ratio amounted to 0.99932 ± 5.1e-05.

On to TTCAGCCGAG, for which the switch fluorescence ratio is 1.02 ± 0.014.

For the sequence TTACGGAT, the switch fluorescence ratio was 1.06 ± 0.019.

Regarding TTGTTGGGGG, the switch fluorescence ratio was 0.994 ± 0.027.

CTTGCGGGGC: the switch fluorescence ratio was found to be 1.03 ± 0.051.

Regarding CGGACTGGGC, the switch fluorescence ratio was 0.959 ± 0.051.

As for TTATACGTAG, the switch fluorescence ratio amounted to 1.03 ± 0.019.

Take TATGAGTCGA: the switch fluorescence ratio was 1 ± 0.019.

TACACTTGTA: the switch fluorescence ratio was found to be 1.03 ± 0.057.

On to AGTGTTCGCG, for which the switch fluorescence ratio was 1 ± 0.015.

As to ACAAATATAT, the switch fluorescence ratio was found to be 1.17 ± 0.081.

Turning to CAATCCTATC, the switch fluorescence ratio turned out to be 1.02 ± 0.034.

With GGGTTCGGGG, the switch fluorescence ratio is 1 ± 0.056.

Take AGTCTTGGTG: the switch fluorescence ratio amounted to 0.973 ± 0.018.

Consider TATGAGATTT, for which the switch fluorescence ratio turned out to be 0.955 ± 0.026.

On to GATTGGTAGG, for which the switch fluorescence ratio came out at 0.981 ± 0.017.

For TTAAGCTGAA, the switch fluorescence ratio was determined as 0.961 ± 0.044.

As to TATGAAGACG, the switch fluorescence ratio came out at 1.12 ± 0.064.

For TCATTTACAT, the switch fluorescence ratio was determined as 1.04 ± 0.037.

In the case of AAGAGGCATG, the switch fluorescence ratio is 0.971 ± 0.07.

With TTTGATGGGC, the switch fluorescence ratio is 0.9911 ± 0.0075.

Consider AATGATATTG, for which the switch fluorescence ratio worked out at 0.998 ± 0.032.

Take GGTCCGTTTC: the switch fluorescence ratio is 1.01 ± 0.056.

In the case of TTTGTACTTT, the switch fluorescence ratio came out at 1.01 ± 0.041.

In the case of AATTTGGGTG, the switch fluorescence ratio amounted to 1.04 ± 0.049.

Take GGGTTATCCT: the switch fluorescence ratio was found to be 1.07 ± 0.047.

For AAATTTCTTA, the switch fluorescence ratio was 1 ± 0.026.

Turning to CCATCTATCG, the switch fluorescence ratio stood at 1.03 ± 0.026.

Consider GGAATTGGGC, for which the switch fluorescence ratio was determined as 1.03 ± 0.022.

On to GAGGTTGGCA, for which the switch fluorescence ratio was determined as 0.994 ± 0.01.

GAAGAAAGCG: the switch fluorescence ratio turned out to be 1.007 ± 0.0094.

For CTGGTTGGGA, the switch fluorescence ratio came out at 0.992 ± 0.013.

On to AATTTTTCAG, for which the switch fluorescence ratio worked out at 0.985 ± 0.018.

As for GGATAACTCT, the switch fluorescence ratio turned out to be 1.01 ± 0.015.

On to TTTAAGTCAG, for which the switch fluorescence ratio turned out to be 1.018 ± 0.0088.

In the case of AACAGTAGCA, the switch fluorescence ratio came to 1.03 ± 0.019.

Turning to TTTCGGCACT, the switch fluorescence ratio came out at 1.01 ± 0.05.

GCAGGGGGCG: the switch fluorescence ratio is 1.04 ± 0.051.

As for GGTGTTGTGG, the switch fluorescence ratio stood at 0.9911 ± 0.0093.

As for CTGTTCTGGG, the switch fluorescence ratio was determined as 1.003 ± 0.0063.

As to CCGGAAGAGA, the switch fluorescence ratio worked out at 1.09 ± 0.035.

As for AGTTACGCGC, the switch fluorescence ratio is 1.04 ± 0.032.

Turning to TCATCTAGGA, the switch fluorescence ratio came out at 0.985 ± 0.011.

Consider CTGGTATAGG, for which the switch fluorescence ratio was determined as 0.977 ± 0.028.

With GCATTACTTG, the switch fluorescence ratio is 1.16 ± 0.027.

GCGTCGAACA: the switch fluorescence ratio was 0.999 ± 0.068.

For the sequence CTCAATGACT, the switch fluorescence ratio turned out to be 1.02 ± 0.016.

On to CTGGGACGTG, for which the switch fluorescence ratio was 0.967 ± 0.028.

Turning to AGATGCCGGA, the switch fluorescence ratio turned out to be 1 ± 0.027.

Turning to TCTTATGCGG, the switch fluorescence ratio was found to be 0.998 ± 0.019.

For GTTTATTGAA, the switch fluorescence ratio is 1.024 ± 0.0036.

As for TAGCGGCGGC, the switch fluorescence ratio stood at 1.01 ± 0.016.

Consider GGGCTTTGGG, for which the switch fluorescence ratio is 1.008 ± 0.0068.

Take TTAAGCAACA: the switch fluorescence ratio was determined as 1.13 ± 0.018.

As for CGGGGTACGT, the switch fluorescence ratio is 0.985 ± 0.027.

In the case of TGCAGAAATT, the switch fluorescence ratio stood at 0.98 ± 0.059.

As for TTCACTTTTT, the switch fluorescence ratio was determined as 1 ± 0.012.

Turning to TGGGGCGTCT, the switch fluorescence ratio stood at 1.01 ± 0.043.

For the sequence TGGTTACTTC, the switch fluorescence ratio came to 1.04 ± 0.028.

Consider TTTACCGAAT, for which the switch fluorescence ratio is 1.05 ± 0.017.

As to GATCGGAGGG, the switch fluorescence ratio was found to be 1.01 ± 0.027.

Regarding AGCCTGATCT, the switch fluorescence ratio amounted to 1.036 ± 0.0053.

In the case of TCCATTCCGA, the switch fluorescence ratio worked out at 1.17 ± 0.13.

Consider TCGGGACATC, for which the switch fluorescence ratio was 1.03 ± 0.032.

For GATATTTTGT, the switch fluorescence ratio was determined as 0.997 ± 0.031.

As for TATCGGGTCG, the switch fluorescence ratio worked out at 1.12 ± 0.13.

With AAATAACTAG, the switch fluorescence ratio is 0.99 ± 0.015.

With TCGGAGTAAC, the switch fluorescence ratio worked out at 1.667 ± 0.0081.

On to CGTTAGTTCT, for which the switch fluorescence ratio is 1 ± 0.029.

In the case of TTCGGGATTA, the switch fluorescence ratio is 1 ± 0.018.

In the case of ATGGGTTAGA, the switch fluorescence ratio turned out to be 1.05 ± 0.037.

In the case of CCAAGGGGAG, the switch fluorescence ratio is 0.988 ± 0.037.

For ATGTTGACCG, the switch fluorescence ratio came to 1.03 ± 0.044.
